This note sets out measurements from the RNAGym collection of RNA variant scans (doi:10.7554/elife.80360).

The labels stand for the following.
B1: Hairpin Ribozyme (parent)
chain: GUCCUCUUUCACGUGCGCGUGAAAGAGAGAAGUGAACCAGAGAAACACACGUUGUGGUAUAUUACCUGGUA

This series covers variants of B1. As to the kind of experiment: self-cleavage, relative activity (ratio to wild type); higher = more cleavage; co-transcriptional.
On to A11U U70G, for which the self-cleavage was 0.656.
On to A11U U70A, for which the self-cleavage amounted to 0.914.
The same measure for A11G A23G: 0.83.
Consider C12G A71C, for which the self-cleavage amounted to 1.3.
For the variant C12G A71U, the self-cleavage is 0.655.
For C10U A26U, the self-cleavage amounted to 0.624.
With A11G G54A, the self-cleavage came out at 0.487.
Turning to A11G G54U, the self-cleavage was found to be 0.56.
As to A11C G21C, the self-cleavage was 0.732.
Turning to A11C G21A, the self-cleavage stood at 0.605.
For A11G U67G, the self-cleavage was found to be 0.354.
As to A11G U67A, the self-cleavage turned out to be 0.243.
On to C10U C16A, for which the self-cleavage is 0.887.
With C10U C16G, the self-cleavage is 0.564.
With C10U A41C, the self-cleavage worked out at 1.03.
Take C10U A41U: the self-cleavage amounted to 0.817.
With C10U G34C, the self-cleavage is 1.02.
With A11U C48A, the self-cleavage came out at 0.215.
As to A11U C48U, the self-cleavage amounted to 0.154.
With A11C A24C, the self-cleavage came to 0.709.
A11C A24U: the self-cleavage is 0.615.
In the case of C12G A31C, the self-cleavage came to 0.174.
The same measure for C12A A44G: 0.114.
Take C12A A44C: the self-cleavage was 0.0806.
The same measure for A11U U60C: 1.18.
As to C10U G51A, the self-cleavage was 0.881.
The figure for C10U G51U is 0.888.
Turning to A11U C50A, the self-cleavage stood at 0.153.
Consider A11G G32A, for which the self-cleavage was 0.0907.
As to A11G G32U, the self-cleavage was 0.104.
With C12A G68A, the self-cleavage turned out to be 0.262.
As to C12A G68U, the self-cleavage is 0.251.
With C12A G68C, the self-cleavage worked out at 0.241.
As for C10U G32U, the self-cleavage came to 0.164.
With C10U G32A, the self-cleavage stood at 0.176.
As for A11G G21A, the self-cleavage stood at 0.764.
With A11G G21U, the self-cleavage was 0.72.
The figure for A11U U63G is 0.175; for A11G A35U it is 0.764; for A11G A35C it is 0.996.
For the variant A11G U52A, the self-cleavage turned out to be 0.857.
For the variant C10U U60G, the self-cleavage is 0.435.
On to A11G G57C, for which the self-cleavage came to 0.169.
Take A11C G51A: the self-cleavage was found to be 1.08.
Take A11U A24U: the self-cleavage came to 0.638.
Regarding C10U G17A, the self-cleavage stood at 0.808.
With C10U G17C, the self-cleavage came out at 0.58.
Turning to A11C A45U, the self-cleavage stood at 0.128.
In the case of A11C A45C, the self-cleavage was 0.0923.
The figure for C12A U14C is 0.71; for C12A U14G it is 0.566; for C12A U14A it is 0.611.
With C10U C18G, the self-cleavage came to 0.755.
The same measure for C10U G13C: 0.471.
The figure for C10U G13U is 0.612.
As to C12A U62A, the self-cleavage came to 0.168.
Take C10U A61G: the self-cleavage is 0.201.
For C10U A61C, the self-cleavage came to 0.311.
In the case of C10U A71G, the self-cleavage stood at 0.811.
Consider C12A G25C, for which the self-cleavage worked out at 0.346.
Consider A11C U52C, for which the self-cleavage was 1.06.
For the variant A11U C65G, the self-cleavage is 0.308.
Turning to A11U C65U, the self-cleavage was determined as 0.25.
As to C12A A41C, the self-cleavage came out at 1.05.
Turning to C12A A41U, the self-cleavage was determined as 1.13.
With C12A C46U, the self-cleavage amounted to 0.119.
The figure for C12A C46A is 0.202; for A11U C66U it is 0.318.
For the variant C10U U70G, the self-cleavage was determined as 0.698.
With C12G A49G, the self-cleavage worked out at 0.462.
Take C10U A59C: the self-cleavage amounted to 0.227.
For C10U A59G, the self-cleavage was 0.206.
Take C10U U14C: the self-cleavage was found to be 0.671.
C10U U14G: the self-cleavage stood at 0.698.
A11C C66G: the self-cleavage turned out to be 0.0776.
On to C12G A24U, for which the self-cleavage amounted to 0.669.
As for A11G C48A, the self-cleavage stood at 0.0849.
The same measure for A11G C48G: 0.109.
The same measure for C12A U33C: 0.166; for C12G A59G: 0.18.
Consider C12G A22G, for which the self-cleavage turned out to be 0.739.
C12G A22U: the self-cleavage was 0.686.
A11C C65G: the self-cleavage came to 0.331.
On to A11C U20A, for which the self-cleavage amounted to 0.774.
In the case of A11C U20G, the self-cleavage turned out to be 1.04.
With A11G A71C, the self-cleavage came to 1.35.
For the variant A11G A71U, the self-cleavage was found to be 0.749.
Regarding A11G C50A, the self-cleavage came to 0.196.
As to A11G C50G, the self-cleavage came out at 0.346.
On to A11U A23G, for which the self-cleavage came to 0.402.
As to A11U A23C, the self-cleavage is 0.652.
Regarding C12A A35G, the self-cleavage amounted to 0.914.
Consider C12A A35C, for which the self-cleavage stood at 0.978.
C10U G68A: the self-cleavage was 0.217.
Turning to A11G C66A, the self-cleavage came to 0.29.
As to C12A A22U, the self-cleavage was found to be 0.737.
As for C12G A35G, the self-cleavage was 0.874.
In the case of C12A U58G, the self-cleavage amounted to 0.708.
As for A11G G25C, the self-cleavage came to 0.587.
On to A11G G25U, for which the self-cleavage was found to be 0.569.
As for A11C G17A, the self-cleavage came to 0.759.
As for C10U C37U, the self-cleavage came to 0.39.
On to A11C U67C, for which the self-cleavage came to 0.225.
In the case of C12A A39G, the self-cleavage worked out at 0.285.
C12A A39U: the self-cleavage worked out at 0.425.
The figure for A11G G51C is 0.784; for A11U U58C it is 0.822; for A11G G29U it is 0.142.
The same measure for A11C U33A: 0.222.
Consider A11C U33C, for which the self-cleavage came to 0.252.
As to A11C U33G, the self-cleavage was 0.0703.
Consider A11C G19U, for which the self-cleavage stood at 0.697.
The same measure for A11C G68C: 0.136.
A11C G68A: the self-cleavage turned out to be 0.248.
The figure for C12A G17A is 0.746; for C12A G17C it is 0.978; for C12A G17U it is 0.707.
In the case of A11C C48A, the self-cleavage worked out at 0.0917.
Turning to A11C C48G, the self-cleavage was found to be 0.0688.
Consider A11C C48U, for which the self-cleavage stood at 0.266.
For the variant A11G A47C, the self-cleavage turned out to be 0.481.
On to C12A U67G, for which the self-cleavage worked out at 0.215.
C12A U67C: the self-cleavage came to 0.216.
For C12A U67A, the self-cleavage was 0.18.
C10U A30C: the self-cleavage was 0.146.
As for A11C U70C, the self-cleavage was 1.23.
Take C12A C38G: the self-cleavage was 0.187.
Consider C12A C38U, for which the self-cleavage amounted to 0.482.
For C10U U67G, the self-cleavage was found to be 0.311.
C10U U67A: the self-cleavage came out at 0.137.
The figure for C12A G27C is 0.0872; for A11U A30C it is 0.236; for C12A A31C it is 0.117.
The same measure for C12A A31G: 0.468; for A11C G34U: 1.45.
In the case of C12G A39C, the self-cleavage turned out to be 0.436.
For the variant C12G A61G, the self-cleavage came out at 0.154.
Regarding C12G A61U, the self-cleavage amounted to 0.217.
Regarding C12A U20A, the self-cleavage was determined as 0.865.
The same measure for C12A U20C: 0.919.
Regarding A11G A45U, the self-cleavage was determined as 0.159.
The same measure for A11G C12A: 0.735; for A11G C12U: 0.778; for C10U G69C: 0.235.
On to C12A G21A, for which the self-cleavage was 0.767.
Consider C12A G42C, for which the self-cleavage is 0.272.
As to C12A G42U, the self-cleavage is 0.301.
A11C C38U: the self-cleavage came out at 0.515.
The same measure for A11C U58G: 0.696.
The figure for C10U G21A is 0.937; for C10U G21C it is 0.77; for A11G A30U it is 0.118.
Take A11C A61G: the self-cleavage is 0.0356.
Turning to A11C A61U, the self-cleavage was 0.118.
As to A11U G68A, the self-cleavage was 0.316.
On to A11G A28C, for which the self-cleavage worked out at 0.446.
With A11U G40U, the self-cleavage is 0.154.
Take A11C G69U: the self-cleavage was 0.299.
For A11C G69A, the self-cleavage came out at 0.381.
As for A11G A26C, the self-cleavage amounted to 0.624.
For C10U G25A, the self-cleavage came out at 0.429.
As to C12G C16U, the self-cleavage came out at 0.812.
In the case of C12A A43U, the self-cleavage is 0.131.
The figure for A11U A47G is 0.247; for A11U A47C it is 0.232.
The figure for A11C G29C is 0.137.
The same measure for A11C G29U: 0.113.
